Source: US10975365B2, “Di-enzymatic chimeric endolysin” (Government of the United States of America, as represented …, priority 2018, dated 2021)

B1: ClyX-4: the full-length PlySs2 with an additional C′ terminal Cpl-1 EAD (GH25); Seq. ID No. 22 (protein)
chain: MTTVNEALNNVRAQVGSGVSVGNGECYALASWYERMISPDATVGLGAGVGWVSGAIGDTISAKNIGSSYNWQANGWTVSTSGPFKAGQIVTLGATPGNPYGHVVIVEAVDGDRLTILEQNYGGKRYPVRNYYSAASYRQQVVHYITPPGTVAQSAPNLAGSRSYRETGTMTVTVDALNVRRAPNTSGEIVAVYKRGESFDYDTVIIDVNGYVWVSYIGGSGKRNYVATGATKDGKRFGNAWGTFKMVKKNDLFVDVSSHNGYDITGILEQMGTTNTIIKISESTTYLNPCLSAQVEQSNPIGFYHFARFGGDVAEAEREAQFFLDNVPMQVKYLVLDYEDDPSGDAQANTNACLRFMQMIADAGYKPIYYSYKPFTHDNVDYQQILAQFPNSLWIAGYGLNDGTANFEYFPSMDGIRWWQYSSNPFDKNIVLLDDEEDDKPKTAGTWKQDSKGWWFRRNNGSFPY
modifications: Bacteriophage
notes: the full-length PlySs2 with an additional C′ terminal Cpl-1 EAD (GH25); ID No. 22
B2: ClyX-1: chimeric endolysin, Seq. ID No. 17: Cpl-1 CBD fused between GyH and CHAP catalytic domains of PlyCA (protein)
chain: MSKKYTQQQYEKYLAQPANNTFGLSPQQVADWFMGQAGARPVINSYGVNASNLVSTYIPKMQEYGVSYTLFLMYTVFEGGGAGNWINHYMYDTGSNGLECLEHDLQYIHGVWETYFPPALSAPECYPATEDNAGALDRFYQSLPGRTWGDVMIPSTMAGNAWVWAYNYCVNNQGAAPLVYFGNPYDSQIDSLLAMGADPFTGGSIMEEDDKPKTAGTWKQDSKGWWFRRNNGSFPYNKWEKIGGVWYYFDSKGYCLTSEWLKDNEKWYYLKDNGAMATGWVLVGSEWYYMDDSGAMVTGWVKYKNNWYYMTNERGNMVSNEFIKSGKGWYFMNTNGELADNPSFTKEPDGLITVAGSDRVAANLANAQAQVGKYIGDGQCYAWVGWWSARVCGYSISYSTGDPMLPLIGDGMNAHSIHLGWDWSIANTGIVNYPVGTVGRKEDLRVGAIWCATAFSGAPFYTGQYGHTGIIESWSDTTVTVLEQNILGSPVIRSTYDLNTFLSTLTGLITFK
modifications: Bacteriophage
notes: ID No. 17: Cpl-1 CBD fused between GyH and CHAP catalytic domains of PlyCA

How the values were obtained:
[1] = tested on: GAS, GBS, GCS, S. uberis, S. suis and S. mutants; assay: Bactericidal activity of ClyX-4 on streptococci; format: cell-based; conditions: 50 μg/ml; 1 h
Method: (a) Bactericidal effects of ClyX-3 against five strains of stationary phase S. pneumoniae. 5 μg/ml of enzymes were mixed with 10^6 bacterial cultures for 5 min. Log killing was determined through the comparisons of PBS treatment and enzymes treatment. (b) Bactericidal effects of ClyX-4 against stationary phase streptococci. 50 μg/ml of enzymes were mixed with 10^6 bacterial culture for 1 h. Log killing was determined through the comparisons of PBS treatment and enzymes treatment;
(§1) With regard to bactericidal assay, bacterial cells were diluted to 2× rich media to generate a final concentration of 5.0×10^6 CFU/ml. 100 μl of the diluted bacterial culture was added into a 96-well titration plate in triplicate and mixed with 100 μl of sterile-filtered enzymes. Plates were sealed and incubated at 37° C. for 5-60 min. After the incubation, bacterial cells were serially diluted in 10-fold increments into sterile PBS and plated on THY/TSB agar. Log killing was calculated as follows: −log[(CFU under enzyme treatment)/(CFU under PBS treatment)].
With regard to applying the design rationale to add a C′ terminal EAD such that two EADs are disposed at each side of the CBD, the process was used to engineer endolysins for increased activity. […]

[2] = tested on: other streptococci strains; assay: MIC test on other streptococci strains; format: cell-based
Method: The MICs of enzymes and antibiotics were determined in a 96-well titration plate in triplicate. Briefly, the overnight pneumococcal culture was diluted with 2×THY to obtain a final concentration of 1×10^7 CFU/ml, and other bacterial species were diluted with 2-folded medium to 1×10^5 CFU/ml. 100 μl of the diluted bacterial culture was subjected into each well, mixing with the serial 2-fold diluted 100 μl of enzymes/antibiotics. PBS buffer was used as a negative control. The plates were sealed via parafilm and statically incubated at 37° C. incubator for 24 h. The MIC was defined as the lowest concentration of treatment that inhibited visible growth of the bacterium.
With regard to applying the design rationale to add a C′ terminal EAD such that two EADs are disposed at each side of the CBD, the process was used to engineer endolysins for increased activity. We created the ClyX-3, the full-length Cpl-1 with an additional C′ terminal PlyC CHAP, and ClyX-4, the full-length PlySs2 with an additional C′ terminal Cpl-1 EAD (GH25) (FIG. 4 and FIG. 6). These constructs were expressed and purified as soluble proteins.

S. pneumoniae NS26 = assay: Mouse systemic infection model, survival; format: in vivo, female BALB/c mice; conditions: 10 days
Method: (§2) (a) Different concentrations of ClyX-1 and Cpl-1 were mixed with 10^6 overnight S. pneumoniae D39 culture for 5 min. The cells were then serial diluted and plated on the THY plates. Log killing was determined through the comparisons of PBS treatment and the enzymes treatment. (b) Female BALB/c mice were injected intraperitoneally with pneumococcus strain S. pneumoniae NS26 at a single dose at 2.95×10^7 colony forming units (CFU) per mouse. One hour after the infection, mice were intraperitoneally received a single dose of different treatments in different amount per mouse. The lines represent the percentage survival of mice for 10 days. The data was plotted as Kaplan-Meier survival curves and analyzed via the Log-rank (Mantel-Cox) test (*P<0.001; **P<0.0001);
With regard to in vivo mouse infection models, mouse infection experiments were carried out in an ABSL-2 lab. In the mouse systemic infection model, female BALB/c mice (6-8 weeks old) were injected intraperitoneally with S. pneumoniae NS26 at a single dose of 2.95×10^7 CFU/mouse and divided randomly into multiple groups. Bacterial burden in blood and organs in mice 1 h post-infected were confirmed by plating on THY agar as described previously. One hour post-infection, these groups intraperitoneally received a single dose of 20, 40, or 80 μg/mouse of […] (n=10); 20, 40, or 80 μg/mouse of Cpl-1 (n=10); 100 μg/mouse of penicillin G (n=10); or an equal volume of PBS buffer (n=10). The survival data for all groups were recorded for 10 days.
To validate the in vitro bactericidal activity of ClyX-1, we applied a mouse systemic infection model to test the in vivo efficacy of the enzyme. Mice were challenged to a 2-days lethal-dose of 2.95×10^7 CFU. One hour after infection, the mice were intraperitoneally injected a single dose containing different amount of either ClyX-1 or Cpl-1 ranging from 20 μg-80 μg. The antibiotics control was 100 μg/mouse of penicillin G, and the negative control was as PBS, pH7.4 buffer. The mice were then observed and recorded for the survival data. All the mice treated with PBS buffer died within the first 2 days.

[3] = tested on: S. pneumoniae ATCC TIGR 4; assay: Bacteriolytic (turbidity reduction) assay; format: cell-based, Streptococcus pneumoniae; conditions: 5 μg/ml; OD from 1.0 to 0.2 within the first 2 min; overnight culture
Method: (§3) In a bacteriolytic assay, bacterial culture (stationary phase) was harvested at 5,000 for 10 min at 4° C., washed twice and resuspended in PBS buffer, pH7.4. In a 96-well titration plate, the resuspended bacterial solution was mixed 1:1 (u/u) with endolysin to a final OD600 between 0.8 to 1.0. In each run, PBS was included as a negative control. Spectrophotometric readings (OD600) were taken every 15 s over 10 min on a spectrophotometer. Vmax was calculated as the slope of the linear portion and represented the endolysins activity. All experiments were conducted in triplicate to get the standard deviation.
(§4) Bacteriolytic capacity of ClyX-1 and ClyX-1 linkers were analyzed via the turbidity reduction assay against the overnight culture of S. pneumoniae ATCC TIGR 4. Both enzymes-induced lysis of the bacterial peptidoglycan caused a decrease in OD from 1.0 to 0.2 (80%) within the first 2 min of the turbidity assay at 5 μg/ml as shown in FIG. 9a. The linkers were the only difference between these two enzymes, and the unstructured region of PlyCA GyH, PlyCA CHAP, and Cpl-1 CBD provide optimal flexibility for enzymatical activity. High lytic activity correlated with data for bacterial survival after chimera treatment. ClyX-1 sterilized cultures for 5 min, causing a decrease in TIGR 4 viability of ˜6 log, at as low as 0.5 μg/ml (FIG. 9b). […]

S. pneumoniae strains = assay: Antimicrobial spectrum of ClyX-1 by turbidity reduction assay, pneumococci; format: cell-based, Streptococcus pneumoniae; conditions: 14 most frequent serotypes, Lyt 4.4, R36A and R6; 5 μg/ml, 10 min
Method: (§5) (b) Bactericidal effects of ClyX-1 against stationary phase S. pneumoniae R6. Different concentrations of ClyX-1 were mixed with 10^6 overnight bacterial culture for 5 min. Log killing was determined through the comparisons of PBS treatment and ClyX-1 treatment. (c)-(d) Biochemical characterization of ClyX-1. The effects of temperature stability (c) and pH (d) were evaluated. […] of ClyX-1 was assayed for lytic activity via turbidity reduction assay against stationary phase S. pneumoniae TIGR 4 cells for 10 min. Values were presented as percentage of lytic activity in a relation to activity observed for pH 7 and 37° C. (e) The host range of ClyX-1. Multiple strains of streptococci were tested for susceptibility. The bacterial cells were washed twice and resuspended in PBS to a final OD600 of 0.9-1.0. The changes of OD600 were presented after treating with […] of ClyX-1 for 10 min;
(§6) In a bacteriolytic assay, bacterial culture (stationary phase) was harvested at 5,000 for 10 min at 4° C., washed twice and resuspended in PBS buffer, pH7.4. In a 96-well titration plate, the resuspended bacterial solution was mixed 1:1 (u/u) with endolysin to a final OD600 between 0.8 to 1.0. […] Spectrophotometric readings (OD600) were taken every 15 s over 10 min on a spectrophotometer. Vmax was calculated as the slope of the linear portion and represented the endolysins activity. […]

[4] = tested on: stationary phase S. pneumoniae TIGR 4; assay: Temperature stability and pH optimum of ClyX-1 by turbidity reduction assay; format: cell-based, Streptococcus pneumoniae
Method: as §3
The optimal biochemical conditions for ClyX-1 against stationary phase S. pneumoniae TIGR 4 were determined using the turbidity reduction assay described above. For temperature stability, ClyX-1 was incubated at indicated temperatures (4° C., 16° C., 25° C., 37° C., 45° C., 55° C., or 65° C.)/tsb for 30 min, recovered on ice for 5 min, and subjected to the spectrophotometric analysis. For optimal pH condition, pneumococci TIGR 4 were suspended in 40 mM boric acid/phosphoric acid (BP) buffer, pH 3-10, and were challenged against ClyX-1.

S. pneumoniae D39 = assay: Bactericidal assay on D39, ClyX-1 compared with Cpl-1 and PlyCA; format: cell-based, Streptococcus pneumoniae
Method: as §2, §1
Bactericidal assays were repeated using the three lysins at different concentrations (0.5 μg/ml to 50 μg/ml) on a different strain, D39 (FIG. 10a).

other streptococci = assay: Antimicrobial spectrum of ClyX-1 by turbidity reduction assay, other streptococci; format: cell-based; conditions: 5 μg/ml, 10 min
Method: as §5, §6

TIGR 4 = assay: Bactericidal assay (log killing), 5 min; format: cell-based, Streptococcus pneumoniae; conditions: 0.5 μg/ml
Method: as §1
as §4, with “9b). Stability of ClyX-1 at different temperature and pH was surveyed to determine optimal conditions.” for “9b).”

[5] = incubated 30 min at indicated temperature before assay

Row | Molecule | bactericidal activity compared with PlySs2 [1] | activity by MIC compared with parental endolysin and ClyX-2 [2] | mice rescued (survival) (S. pneumoniae NS26; 20 μg single i.p. dose 1 h after infection) [%] | mice rescued (survival) (S. pneumoniae NS26; 40 μg single i.p. dose 1 h after infection) [%] | mice rescued (survival) (S. pneumoniae NS26; 80 μg single i.p. dose 1 h after infection) [%] | decrease in OD in turbidity assay [3] [%] | susceptibility of all tested pneumococcal strains (S. pneumoniae strains) | optimal pH condition ([4]; BP buffer pH 3-10) | pH above which activity is lost (protein precipitation) ([4]; BP buffer pH 3-10) | pH below which activity is lost (protein precipitation) ([4]; BP buffer pH 3-10) | temperature above which the activity rapidly dropped [4, 5] | temperature below which the enzyme was stable with highest activity [4, 5] | fold increase in activity in vitro against S. pneumoniae compared to the parental enzyme (S. pneumoniae D39; versus parental Cpl-1) [fold] | concentration at which the bacteria culture was sterilized (S. pneumoniae D39; within 5 min, tested 0.5 to 50 μg/ml) [µg/mL] | lysis of other streptococci (other streptococci) | decrease in viability (TIGR 4) [log]
1 | B1 | more active than PlySs2 | better than parental endolysins |  |  |  |  |  |  |  |  |  |  |  |  |  | 
2 | B2 |  |  | 30 | 40 | 80 | 80 | susceptible | 6.5 | above 8 | below 4 | above 45 °C | below 37 °C | ~100 | ≤ 0.5 | lysis of no other streptococci tested | ~6
